In the supplement of paper PMC12455559:
± gives the standard deviation of the averaged measurements.

Key:
[1] = purified protein yield per well (BCA); higher = higher soluble expression
Procedure, shortened: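 The measured quantity is purified protein yield per well, determined with the Pierce Rapid Gold BCA kit. Anything below 25 ug (0.1 mg/mL) lies under the detection threshold. Enzymes were expressed in E. coli C41(DE3) in 2 mL autoinduction cultures with 100 µg/mL kanamycin at 37 °C for 2 h, then 18 °C for 40 h, and purified on an OT-2 robot using Ni-charged magnetic beads and SUMO protease release.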

[2] = PET hydrolysis, aromatic products released after 48 h (umol product/mg enzyme); higher = more PET depolymerization activity
Procedure, shortened: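 PET hydrolysis activity was taken as the aromatic product in the supernatant and expressed per mg enzyme. This product was measured by absorbance at 260 and 280 nm against buffer blanks. Each reaction held 5 μg (50 μL) of tagless, SUMO-cleaved candidate enzyme purified on nickel beads, plus 3.5 mg amorphous PET film or crystalline PET powder in 450 μL buffer: 50 mM NaCitrate (pH 4.5, 5.5), 50 mM NaPhosphate (pH 6.5, 7.5) or glycine (pH 8.5). Plates were sealed and left 48 h at 40 or 60 °C without shaking.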

[3] = melting temperature (DSF); higher = more thermostable
Procedure, shortened: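 Enzymes made in E. coli C41(DE3) were nickel-bead purified and cut free with SUMO protease before testing. Differential scanning fluorimetry gave each melting temperature. For this, 5 μL 5X Sypro Orange was added to 45 μL enzyme (0 to 0.3 mg/mL) in sealed PCR plates, and a Bio-Rad CFX96 read fluorescence from 25 °C over 250 cycles of 0.3 °C each, ramping at 0.3 °C/s.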

[4] = substrate: aFilm, 40 °C, pH 4.5
[5] = substrate: aFilm, 40 °C, pH 5.5
[6] = substrate: aFilm, 40 °C, pH 6.5
[7] = substrate: aFilm, 40 °C, pH 7.5
[8] = substrate: aFilm, 60 °C, pH 4.5
[9] = substrate: aFilm, 60 °C, pH 5.5
[10] = substrate: aFilm, 60 °C, pH 6.5
[11] = substrate: aFilm, 60 °C, pH 7.5
[12] = substrate: cryPow, 40 °C, pH 4.5
[13] = substrate: cryPow, 40 °C, pH 5.5
[14] = substrate: cryPow, 40 °C, pH 6.5
[15] = substrate: cryPow, 40 °C, pH 7.5
[16] = substrate: cryPow, 60 °C, pH 4.5
[17] = substrate: cryPow, 60 °C, pH 5.5
[18] = substrate: cryPow, 60 °C, pH 6.5
[19] = substrate: cryPow, 60 °C, pH 7.5

Sequence	purified protein yield per well [1] [µg]	PET hydrolysis [2, 4]	PET hydrolysis [2, 5]	PET hydrolysis [2, 6]	PET hydrolysis [2, 7]	PET hydrolysis [2, 8]	PET hydrolysis [2, 9]	PET hydrolysis [2, 10]	PET hydrolysis [2, 11]	PET hydrolysis [2, 12]	PET hydrolysis [2, 13]	PET hydrolysis [2, 14]	PET hydrolysis [2, 15]	PET hydrolysis [2, 16]	PET hydrolysis [2, 17]	PET hydrolysis [2, 18]	PET hydrolysis [2, 19]	melting temperature [3] [C]
MLTITVATGSASAADNPYQRGPDPTRTSVTAVNGPFANTSVSVPTGYGFNGGRIYYPTDTSQGTFGAIAISPGYTALFSAELAWMGPWLASHGFVVIGIETNSRNDFDTARGTQLLAALDYLTQQSPVRDRVDPNRLAVAGHSMGGGGALSAATRRSSLKAVVGIAPYSPSSNLANDRVPTMIFAGQADTVVTPSYATGLYNSLPTTTESAYLEVAGADHGFMVGRSNPVMVRTMLPFVKMFIDNDARYSQFLCPLLDSSGVVTYRSTCPLLPSTPPTSTPTPTDPPTPTPTPTVPPGSASEIVGTQSSRCIDVPNASRNNGTRVQLYDCNKQTNQA [ESM121]	268	< 3	< 3	< 3	< 3	< 3	< 3	< 3	< 3	5.5 ± 0.71	15 ± 1.4	11	2.5 ± 3.5	< 3	< 3	< 3	< 3	58.9
MMPSADAASTLADNPYQRGPDPTVASVAAAYGTFATAQLTVPPGNGFNGGSIYYPTDTSQTYGAVAIVPGYTARFADEEAWMGPRLASFGFVVIGVETNSRNDFDTARGTQLLAALDYLTNSSAVRDRVDRNRLAVIGHSMGGGGALVAADQRPSLKAAIGLAPYKPSGNLANNRVPTLILSGQNDTVVTPSYLDGLYPTLPAATPGAYILLSGADHLFFTRPNDIEMRSQIPWLKTFVDNDTRYSQFLCPTLKDTTSVARSTAKCSLIPSGGNPSTPPSSSSPSPSSPASSSPPPSGAKHIVGAQSGRCVDVPNSSRTNGTRVQLYDCHSGTNQQWTYTSSRQLTVYGSMCLDAAGSGNGAAVQIYSCNGQANQQWNVNSNGTISGVQSGRCLDVWGTNNGQQIQLYDCHGQANQRFSLS [TEP054]	297	3	8 ± 1.4	9.5 ± 0.71	< 3	< 3	< 3	< 3	< 3	14 ± 4.2	24 ± 2.8	35	18 ± 2.8	2 ± 2.8	7 ± 1.4	7.5 ± 2.1	1.5 ± 2.1	60.7
MNAVGPTTPPTTTPPTTPAGDNPYQRGPDPTVASVAAQYGPFATAQITVPPGNGFNGGFIYYPTDSSHTYGAVAIVPGYTALFADEEAWMGPRLASFGFVVIGVETNSRTDYDTARGTQLLAALDYLTNSSAVRDRVDRNRLAVIGHSMGGGGALYAATQRPSLKAAIGLAPFKPSGNLASDTVPTMIIGGINDTTVTPSYLDGLYPTLPAATPGAYLQLANADHLYFTRPNDIEMRSQIEWLKIFVDNDTRYTPFLCPSIKDTTGIVRSNVKCSTIPGGGSTSPPTTTPPPAGSNRIVGAQSGRCVDVPGASQTNGTRVQLYDCNGQPNQAWTLTASKQLTVYGSRCLDAAGSGNGSAVQIYSCNGQANQQWNVNANGTITGVQSGRCLDVWGTGNGQQVQIYDCNGQANQRFGLS [ESM052]	248	4.5 ± 0.71	7.5 ± 0.71	< 3	< 3	< 3	< 3	< 3	< 3	13.5 ± 2.1	28.5 ± 2.1	36.5 ± 3.5	17.5 ± 7.8	< 3	7.5 ± 0.71	5.5 ± 0.71	< 3	61.6
MPPPDSGAAAHERVHAEPSDPATVGSAGGNPFARGPDPTLASVAAEFGPFATTQLSVPPGHGFNGGYVYYPTDASPTFGAVAIVPGYTALFADEEAWMGPRLASFGFVVIGIETNSREDWDRARGAQLLAALDYVTQHSTVRTRVDSSRLAVIGHSMGGGGAFAAATRRPSLKAVVGLAPYFPSGDLATVRVPTLIIGGQRDTTVTPSYLDDLYATLPTRTPSAYLMLADADHLFPTRPNPVEMRLLIPWLKIFVDRDTRYVRFLCPLADRSGIAQYRVTCPLVPPA [TEP003]	152	–	–	–	–	–	–	–	–	< 3	< 3	< 3	< 3	< 3	< 3	< 3	< 3	67.6
MPPPPPPPPPVQTVTVEPGYGFGGGTIYYPQESTGRLPVVAAVPGFTETQEAVAWYGPLLARRGNIVITIDTISPTNAPKTRADQALAAIDYVVTQSAVSDIADASRTAVMGHSMGGGASLFAALKRPTLKAIVPLAPWARTTDFSGVAVPTLIVGCENDGIAAVGTYAEPFYESIPATTPKAYLEMAGGNHYCTNSEDPVIAGYVSAWTDRFLKGDTTASSRLCPPSPVGPISEYRSNCPY [TEP189]	153	–	–	–	–	–	–	–	–	< 3	8	56	62	< 3	< 3	23	22	67
